Measurements published in patent US20090155255A1 (published 2009).

T1: soluble CD23 antigen (soluble and monomeric form) (UniProt P06734 150-321)
T1 chain: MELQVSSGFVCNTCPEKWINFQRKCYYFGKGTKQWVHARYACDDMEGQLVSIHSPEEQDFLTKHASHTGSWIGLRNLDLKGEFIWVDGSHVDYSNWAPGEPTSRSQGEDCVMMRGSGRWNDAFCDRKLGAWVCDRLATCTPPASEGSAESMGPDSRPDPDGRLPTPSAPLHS


Columns and labels:
IEH-241 [1] = test: Biacore
IEH-243 [2] = test: Biacore
IEH-248 [3] = test: Biacore
IEH-251 [4] = test: Biacore
IEH-250 [5] = test: Biacore
IEH-245 [6] = test: Biacore
IEH-241 [7] = test: DELFIA
IEH-243 [8] = test: DELFIA
IEH-239 = test: DELFIA
IEH-248 [9] = test: DELFIA
IEH-251 [10] = test: DELFIA
IEH-250 [11] = test: DELFIA
IEH-245 [12] = test: DELFIA
[13] = target: T1, soluble CD23 antigen (soluble and …); test: DELFIA
[14] = target: T1, soluble CD23 antigen (soluble and …); test: FRET competition
[15] = target: T1, soluble CD23 antigen (soluble and …); test: Biacore

Kd (IEH-241 [1]) [nM]	Kd (IEH-243 [2]) [nM]	Kd (IEH-248 [3]) [nM]	Kd (IEH-251 [4]) [nM]	Kd (IEH-250 [5]) [nM]	Kd (IEH-245 [6]) [nM]	Kd (IEH-241 [7]) [nM]	Kd (IEH-243 [8]) [nM]	Kd (IEH-239) [nM]	Kd (IEH-248 [9]) [nM]	Kd (IEH-251 [10]) [nM]	Kd (IEH-250 [11]) [nM]	Kd (IEH-245 [12]) [nM]	Kd [13] [nM]	IC50 [14] [µg/mL]	Kd [15] [nM]	Binder
4.6	2.8	1.3	3.2	4.3	1.1	1.2	1.2	3	2.4	1.5	2.6	1				CD23 (receptor) MELQVSSGFVCNTCPEKWINFQRKCYYFGKGTKQWVHARYACDDMEGQLVSIHSPEEQDFLTKHASHTGSWIGLRNLDLKGEFIWVDGSHVDYSNWAPGEPTSRSQGEDCVMMRGSGRWNDAFCDRKLGAWVCDRLATCTPPASEGSAESMGPDSRPDPDGRLPTPSAPLHS
													1.2	0.052	0.8	stabilized p5E8 pIEH252 scFv (scFv) scFv: DIQMTQSPSSLSASVGDRVTITCRASQDIRYYLNWYQQKPGKAPKLLIYSASSLQSGVPSRFSGSGSGTEFTLTVSSLQPEDAATYYCLQVYSTPRTFGQGTKVEIKGGGGSGGGGSGGGGSEVQLVQSGGGLAKPGGSLRLSCAASGFRFTFSNYYMDWVRQAPGQGLEWVGRISSSGDPTWYADSVKGRFTISRDNAKNTLFLQMNSLRAEDTAVYYCASLTTGSDSWGQGVLVTVSS
													1	0.061	0.9	stabilized p5E8 pIEH246 scFv (scFv) scFv: DIQMTQSPSSLSASVGDRVTITCRASQDIRYYLNWYQQKPGKAPKLLIYSASSLQSGVPSRFSGSGSGTEFTLTVSSLQPEDAATYYCLQVYSTPRTFGQGTKVEIKGGGGSGGGGSGGGGSEVQLVQSGGGLAKPGGSLRLSCAASGFRFTFNNYYMDWVRQAPGQGLEWVGRISSSGDHTWYADSVKGRFTISRENAKNTLFLQMNSLRAEDTAVYYCASLTTGSDSWGQGVLVTVSS
